Sequences and labels used below:
B1: Insulin-induced gene 1 protein (Homo sapiens), O15503-1 (parent)
chain: MPRLHDHFWSCSCAHSARRRGPPRASAAGLAAKVGEMINVSVSGPSLLAAHGAPDADPAPRGRSAAMSGPEPGSPYPNTWHHRLLQRSLVLFSVGVVLALVLNLLQIQRNVTLFPEEVIATIFSSAWWVPPCCGTAAAVVGLLYPCIDSHLGEPHKFKREWASVMRCIAVFVGINHASAKLDFANNVQLSLTLAALSLGLWWTFDRSRSGLGLGITIAFLATLITQFLVYNGVYQYTSPDFLYIRSWLPCIFFSGGVTVGNIGRQLAMGVPEKPHSD
partner: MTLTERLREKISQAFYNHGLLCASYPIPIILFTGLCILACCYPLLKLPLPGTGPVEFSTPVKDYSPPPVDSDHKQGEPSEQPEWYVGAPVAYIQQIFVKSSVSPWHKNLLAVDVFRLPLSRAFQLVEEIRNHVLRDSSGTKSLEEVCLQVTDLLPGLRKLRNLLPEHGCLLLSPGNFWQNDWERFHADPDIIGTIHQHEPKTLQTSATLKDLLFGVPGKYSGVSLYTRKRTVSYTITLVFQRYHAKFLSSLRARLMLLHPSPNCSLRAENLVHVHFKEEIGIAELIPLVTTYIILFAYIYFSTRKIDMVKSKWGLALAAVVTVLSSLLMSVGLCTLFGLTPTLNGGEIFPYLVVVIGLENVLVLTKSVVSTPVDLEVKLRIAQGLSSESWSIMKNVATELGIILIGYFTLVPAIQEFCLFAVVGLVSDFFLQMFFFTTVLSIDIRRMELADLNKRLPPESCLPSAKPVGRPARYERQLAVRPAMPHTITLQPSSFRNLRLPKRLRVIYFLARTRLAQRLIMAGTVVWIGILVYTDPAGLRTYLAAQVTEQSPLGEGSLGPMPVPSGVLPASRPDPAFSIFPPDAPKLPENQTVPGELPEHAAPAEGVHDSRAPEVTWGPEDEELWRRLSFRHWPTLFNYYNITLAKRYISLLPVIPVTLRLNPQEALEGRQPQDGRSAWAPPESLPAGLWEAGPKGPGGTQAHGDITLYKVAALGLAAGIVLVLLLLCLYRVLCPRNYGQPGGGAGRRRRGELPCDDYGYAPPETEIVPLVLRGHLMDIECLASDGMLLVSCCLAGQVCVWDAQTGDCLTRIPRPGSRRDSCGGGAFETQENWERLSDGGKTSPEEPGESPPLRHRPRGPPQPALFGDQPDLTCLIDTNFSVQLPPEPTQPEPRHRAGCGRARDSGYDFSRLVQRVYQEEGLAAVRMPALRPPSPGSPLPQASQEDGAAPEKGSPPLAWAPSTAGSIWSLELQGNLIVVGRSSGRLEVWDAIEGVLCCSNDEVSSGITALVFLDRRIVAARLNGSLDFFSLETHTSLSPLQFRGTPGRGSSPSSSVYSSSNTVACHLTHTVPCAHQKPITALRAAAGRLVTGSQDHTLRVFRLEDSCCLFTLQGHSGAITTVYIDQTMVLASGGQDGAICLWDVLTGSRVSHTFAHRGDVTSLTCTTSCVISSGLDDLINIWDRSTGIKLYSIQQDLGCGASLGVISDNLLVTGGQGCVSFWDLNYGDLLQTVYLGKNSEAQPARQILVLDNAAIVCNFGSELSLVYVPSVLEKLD

The variants in this test derive from B1. To be noted: with scap_crigr SCAP.
As for D205A, the “effect of a mutation on the interaction” value is listed as “disrupting interaction strength”.

The record behind these values is IntAct's records for PubMed 16606821.
